Target: T1, Pot1pC (C-terminal domain of the Pot1 DNA-binding domain) (Schizosaccharomyces pombe, UniProt O13988 198-339, V199D)
T1 sequence: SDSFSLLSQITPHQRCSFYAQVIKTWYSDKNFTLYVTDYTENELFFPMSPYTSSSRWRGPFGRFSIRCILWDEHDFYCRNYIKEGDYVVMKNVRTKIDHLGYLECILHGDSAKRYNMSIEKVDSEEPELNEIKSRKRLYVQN
Test: X-ray crystallography

B1: 1R (mixed)
DNA: GGTTACGGT
modifications: ribose at 1 (rG1), rest DNA
  binding result: binds

Source: article PMC5987771
